Experimental data reported in patent US6348573B1, “Compositions and methods for identifying apoptosis signaling pathway inhibitors and activators” (The Regents of the University of Michigan, priority 1998, dated 2002).

Tests used:
FADD = molecular target: T1, FADD (Homo sapiens, UniProt Q13158); assay: In vitro phosphorylation of recombinant FADD by RICK immunoprecipitates; assay type: biochemical; conditions: immunoprecipitates from 293T cells, 5 μM [γ-32P]ATP
T1 construct: made in house
T1 sequence (Q13158 1-208): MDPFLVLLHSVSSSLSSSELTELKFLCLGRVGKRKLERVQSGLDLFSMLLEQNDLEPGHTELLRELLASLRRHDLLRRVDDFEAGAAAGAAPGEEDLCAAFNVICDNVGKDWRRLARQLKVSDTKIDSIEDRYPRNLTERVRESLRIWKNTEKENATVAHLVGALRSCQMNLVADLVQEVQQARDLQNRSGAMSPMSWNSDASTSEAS
Description: CIPERK proteins in total lysate were detected by immunoblotting with mAb to Flag (middle panel). Recombinant FADD on the same filter used in (A) was detected by immunoblotting, with rabbit polyclonal anti-(His)6 antibody (lower panel). Note CIPERK was autophosphorylated. The estimated molecular size is shown on the left [293T cells were transfected with vector control or plasmid expressing Flag-CIPERK (WT) or Flag-CIPERK-K38M (mt), and then CIPERK proteins were immunoprecipitated by mAb to Flag and incubated with recombinant FADD and 5 μM [γ-^32P]ATP].

RICK = RICK (Homo sapiens, UniProt O43353); assay: Autophosphorylation of RICK; conditions: immunoprecipitated from 293T cells, [γ-32P]ATP
Sequence of RICK (O43353 with tags, fused parts or gaps): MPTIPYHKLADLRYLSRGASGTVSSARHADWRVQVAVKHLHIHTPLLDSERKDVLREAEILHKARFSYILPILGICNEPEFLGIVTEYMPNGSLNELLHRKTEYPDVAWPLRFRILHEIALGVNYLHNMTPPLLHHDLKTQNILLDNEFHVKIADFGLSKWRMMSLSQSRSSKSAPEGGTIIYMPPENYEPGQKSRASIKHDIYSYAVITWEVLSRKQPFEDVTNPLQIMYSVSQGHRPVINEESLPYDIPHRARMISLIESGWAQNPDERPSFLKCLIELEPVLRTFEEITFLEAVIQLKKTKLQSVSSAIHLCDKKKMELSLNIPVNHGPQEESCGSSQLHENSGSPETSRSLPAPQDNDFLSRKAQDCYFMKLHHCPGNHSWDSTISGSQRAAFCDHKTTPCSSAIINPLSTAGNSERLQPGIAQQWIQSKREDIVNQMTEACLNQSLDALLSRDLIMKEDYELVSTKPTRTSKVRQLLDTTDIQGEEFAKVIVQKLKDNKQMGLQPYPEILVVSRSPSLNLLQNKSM

Substance: RICK-K38M: RICK ATP-binding site mutant, lysine at position 38 replaced by methionine
- phosphorylation of recombinant FADD (FADD): did not
- auto-phosphorylation in vitro (RICK): dramatically decreased
